# Measured values reported in patent US12303551B2, “Cellular immunotherapy compositions and uses thereof” (CERO THERPEUTICS HOLDINGS, INC., priority 2018, dated 2025).
# Legend:
# SCC152 target cells [1] = test: Phagocytosis of SCC152 by CD4+ T cell/CER, fluorescence microscopy with hybrid capture; assay type: cell-based; settings: TRAF-domain CERs, 4 hours, 1:1:0.5 (CD8:CD4:target cell); versus CD4+ control + CD8+/E7 TCR
# Experimental: (§1) FIG. 28 is a bar graph representing quantification of CD4+ T cell-CER mediated phagocytosis of SCC152 target cells. Results calculated as ((number of phagocytic target events)/(total number of effectors))*100 from 3×3 40× images, 4 hours after initiation of co-culture assay. CD8+ T cells transduced with HPV16 E7 TCR and CD4+ T cells transduced with selected CERs (CER5, CER17, CER19, CER21, CER23, CER26, CER27, CER103b, CER104, CER105, CER106, or CER116) were co-cultured with SCC152 squamous head and neck carcinoma target cells at a 1:1:0.5 ratio for 4 hours and imaged.
# as §1, with “29” for “28”, “(median area ratio” for “((number”, “of” for “of phagocytic”, “events in effector cells*% phagocytosis)” for “events)/(total number of effectors))*100”
# (§2) FIG. 55 is a bar graph representing quantification of CD4+ T cell-CER mediated phagocytosis of SCC152 target cells. Percent phagocytosis was calculated as ((number of phagocytic target events)/(total number of effector cells))*100. These numbers were calculated from 3×3 images captured by Keyence BZ-X710 fluorescence microscope at 40× resolution, 4 hours after initiation of co-culture assay. CD8+ T cells transduced with HPV16 E7 TCR and CD4+ T cells transduced with a selected CER (CER29, CER30, CER110, CER112, CER113, CER114, CER116, or CER117) were co-cultured with SCC152 target cells at a 1:1:0.5 ratio (CD8:CD4:target cell) for 4 hours and imaged.
# as §2, with “56” for “55”, “Adjusted phagocytic index” for “Percent phagocytosis”, “(median area ratio” for “((number”, “of” for “of phagocytic”, “events in” for “events)/(total number of”, “cells*% phagocytosis).” for “cells))*100.”
# Phagocytic activity of CD4+ T cell/CER+CD8+ T cell/HPV16 E7 TCR combinations co-cultured with SCC152 cells was visualized and quantified using KEYENCE BZ-X710 fluorescence microscope, […] and hybrid capture software.
# SCC152 cells = test: Magnitude breadth analysis of phagocytosis by CER type (pHrodo red / CELLTRACE violet microscopy); assay type: cell-based; settings: 8 hours co-culture with SCC152, CD8+/E7 TCR 1:1
# Experimental: Top image is an enlargement of a cell in the lower left image showing a SCC152 cell engulfed by CER126-transduced CD4+ T cell. […] White arrow indicates CD8+ T cell transduced with E7-specific TCR and that is pHrodo Red negative (lower left panel of FIG. 60B). Software rendition of phagocytosis (lower right panel of FIG. 60B).
# Various CER-modified CD4+ T cells were also evaluated for breadth of response to determine whether a particular CER confers a broad phagocytic response of low magnitude (e.g., 10% engulfment in 90% of cells) or a less frequent but strong phagocytic response (e.g., 90% engulfment in 10% of cells) in the host cells. CD8+ T cells were transduced with HPV16 E7 specific TCR as described in Example 1. CD4+ T cells were transduced with lentiviral vectors comprising a CER21, CER27, CER104, CER116, or CER117 nucleic acid. Mock-transduced (vector alone) CD4+ T cell were used as control. CD4+/CER+ and CD8+/E7 TCR+ T cells were stained with CELLTRACE violet. HPV16 E7+ head and neck squamous cell carcinoma cells (SCC152) were stained with pHrodo red. HPV16 E7 TCR transduced CD8+ T cells and selected CER transduced CD4+ T cells were mixed at a 1:1 ratio and co-cultured with SCC152 cells at a 1:1 ratio for 8 hours. Phagocytosis of target SCC152 cells by CER-transduced CD4+ T cells was analyzed by fluorescence microscopy. […] The horizontal axis represents the % area of CER-transduced CD4+ T cells having engulfment or % area of the CER-transduced CD4+ T cells taken up by target SCC152 cells. This measure was rarely above 40% across CER types tested. The vertical axis represents the proportion of CER-transduced CD4+ T cells that were phagocytic. For CER104, about 20% of CER104-transduced CD4+ T cells have more than 10% engulfment. For CER117-transduced CD4+ T cells, less than 10% have more than 10% engulfment.
# SCC152 target cells [2] = test: Lactate dehydrogenase (LDH) cytotoxicity assay in SCC152 co-culture; assay type: cell-based; settings: CD4+/CER + CD8+/HPV16 E7 TCR 1:1; 4 hours co-culture, varying target:effector ratios
# Experimental: FIG. 19 is a bar graph showing a lactate dehydrogenase (LDH) cytotoxicity assay performed 4 hours after co-culture of CD8+ T cells transduced with a HPV16 E7 TCR and CD4+ T cells transduced with CER104 at a 1:1 ratio with SCC152 target cells at varying target cell:effector cell ratios (0.5:1, 1:1, 1:2.5, 1:5, 1:10, 1:20).
# LDH is a cytosolic enzyme that is released by a cell into cell culture media when the plasma membrane is damaged. Thus, LDH's presence in culture medium is a marker for cell death. LDH assays are capable of detecting low level damage to cell membrane which cannot be detected using other methods. LDH may be detected using colorimetric or fluorometric methods.
# [3] = system: SCC152 HPV+ Head & Neck Squamous Carcinoma; test: SCC152 xenograft in NSG mice, tumor caliper measurements; assay type: in vivo; settings: 3×10^6 CER CD4+ T cells added to 1×10^6 E7 TCR CD8+ T cells; versus E7 TCR CD8+ T cells alone
# Source text: 1×10^^6 CD8^+ T cells engineered with a HPV E7 specific TCR were infused with or without 3×10^6 CD4+ T cells engineered with CER104. Data represents mean value of tumor caliper measurements (n=5 mice per group).
# Cellular immunotherapy composition combination comprising HPV E7 specific TCR modified CD8+ T cells (1×10^6) (as described in Example 1) and hCER104 modified CD4+ T cells (3×10^6) were infused into head neck squamous cell cancer mouse model generated by injecting HPV+ SCC152 cells into NSG mice and compared with SCC152 xenograft mice treated with HPV E7 specific TCR modified CD8+ T cells alone (n=5 mice/treatment group).
Molecule,"engulfment of SCC152 target cells (percent phagocytosis, adjusted phagocytic index) (SCC152 target cells [1])",proportion of CER-transduced CD4+ T cells having more than 10% engulfment (SCC152 cells),cytolytic activity (LDH release) (SCC152 target cells [2]),tumor killing (tumor volume by caliper) [3]
"CER117: Chimeric engulfment receptor: Tim4 binding, Tim4 transmembrane, TLR8 and TRAF6 signaling; SEQ ID NO: 153 (protein, CER117, amino acids 1-22 are signal peptide) MSKGLLLLWLVTELWWLYLTPAASEDTIIGFLGQPVTLPCHYLSWSQSRNSMCWGKGSCPNSKCNAELLRTDGTRIISRKSTKYTLLGKVQFGEVSLTISNTNRGDSGVYCCRIEVPGWFNDVKKNVRLELRRATTTKKPTTTTRPTTTPYVTTTTPELLPTTVMTTSVLPTTTPPQTLATTAFSTAVTTCPSTTPGSFSQETTKGSAFTTESETLPASNHSQRSMMTISTDIAVLRPTGSNPGILPSTSQLTTQKTTLTTSESLQKTTKSHQINSRQTILIIACCVGFVLMVLLFLAFLHHLFYWDVWFIYNVCLAKVKGYRSLSTSQTFYDAYISYDTKDASVTDWVINELRYHLEESRDKNVLLCLEERDWDPGLAIIDNLMQSINQSKKTVFVLTKKYAKSWNFKTAFYLALQRLMDENMDVIIFILLEPVLQHSQYLRLRQRICKSSILQWPDNPKAEGLFWQTLRNVVLTENDSRYNNMYVDSIKQYMSLLNCENSCGSSQSESDCCVAMASSCSAVTKDDSVGGTASTGNLSSSFMEEIQGYDVEFDPPLESKYECPICLMALREAVQTPCGHRFCKACIIKSIRDAGHKCPVDNEILLENQLFPDNFAKREILSLMVKCPNEGCLHKMELRHLEDHQAHCEFALMDCPQCQRPFQKFHINIHILKDCPRRQVSCDNCAASMAFEDKEIHDQNCPLANVICEYCNTILIREQMPNHYDLDCPTAPIPCTFSTFGCHEKMQRNHLARHLQENTQSHMRMLA",enhanced engulfment,less than 10%,–,–
"CER116: Chimeric engulfment receptor: Tim4 binding, Tim4 transmembrane, TRAF6 and TLR8 signaling; SEQ ID NO: 152 (protein, CER116, amino acids 1-22 are signal peptide) MSKGLLLLWLVTELWWLYLTPAASEDTIIGFLGQPVTLPCHYLSWSQSRNSMCWGKGSCPNSKCNAELLRTDGTRIISRKSTKYTLLGKVQFGEVSLTISNTNRGDSGVYCCRIEVPGWFNDVKKNVRLELRRATTTKKPTTTTRPTTTPYVTTTTPELLPTTVMTTSVLPTTTPPQTLATTAFSTAVTTCPSTTPGSFSQETTKGSAFTTESETLPASNHSQRSMMTISTDIAVLRPTGSNPGILPSTSQLTTQKTTLTTSESLQKTTKSHQINSRQTILIIACCVGFVLMVLLFLAFLMSLLNCENSCGSSQSESDCCVAMASSCSAVTKDDSVGGTASTGNLSSSFMEEIQGYDVEFDPPLESKYECPICLMALREAVQTPCGHRFCKACIIKSIRDAGHKCPVDNEILLENQLFPDNFAKREILSLMVKCPNEGCLHKMELRHLEDHQAHCEFALMDCPQCQRPFQKFHINIHILKDCPRRQVSCDNCAASMAFEDKEIHDQNCPLANVICEYCNTILIREQMPNHYDLDCPTAPIPCTFSTFGCHEKMQRNHLARHLQENTQSHMRMLAHHLFYWDVWFIYNVCLAKVKGYRSLSTSQTFYDAYISYDTKDASVTDWVINELRYHLEESRDKNVLLCLEERDWDPGLAIIDNLMQSINQSKKTVFVLTKKYAKSWNFKTAFYLALQRLMDENMDVIIFILLEPVLQHSQYLRLRQRICKSSILQWPDNPKAEGLFWQTLRNVVLTENDSRYNNMYVDSIKQY",enhanced engulfment,–,–,–
"CER104: Chimeric engulfment receptor: Tim4 binding, Tim4 transmembrane, TLR8 and DAP12 signaling; SEQ ID NO: 139 (protein, CER104, amino acids 1-22 are signal peptide) MSKGLLLLWLVTELWWLYLTPAASEDTIIGFLGQPVTLPCHYLSWSQSRNSMCWGKGSCPNSKCNAELLRTDGTRIISRKSTKYTLLGKVQFGEVSLTISNTNRGDSGVYCCRIEVPGWFNDVKKNVRLELRRATTTKKPTTTTRPTTTPYVTTTTPELLPTTVMTTSVLPTTTPPQTLATTAFSTAVTTCPSTTPGSFSQETTKGSAFTTESETLPASNHSQRSMMTISTDIAVLRPTGSNPGILPSTSQLTTQKTTLTTSESLQKTTKSHQINSRQTILIIACCVGFVLMVLLFLAFLHHLFYWDVWFIYNVCLAKVKGYRSLSTSQTFYDAYISYDTKDASVTDWVINELRYHLEESRDKNVLLCLEERDWDPGLAIIDNLMQSINQSKKTVFVLTKKYAKSWNFKTAFYLALQRLMDENMDVIIFILLEPVLQHSQYLRLRQRICKSSILQWPDNPKAEGLFWQTLRNVVLTENDSRYNNMYVDSIKQYYFLGRLVPRGRGAAEAATRKQRITETESPYQELQGQRSDVYSDLNTQRPYYK",–,about 20%,enhanced cytolytic activity,enhanced tumor killing in vivo
